According to the supplement of paper PMC9112550, “Optimization of the antimicrobial peptide Bac7 by deep mutational scanning” (BMC Biology, 2022):

system: Escherichia coli TOP10; test: shrunken log2 fold change of peptide-encoding DNA abundance (4.5 h post-induction vs induction); higher = less antimicrobial activity (less host growth inhibition); details: time post-induction: 4.5 h; library: site-saturation at positions 5, 18, 19, 20
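Also: peptides expressed intracellularly from a pBAD plasmid library in pooled LB shake-flask culture, induced with 0.3% L-arabinose, DNA abundance read by NGS, three biological replicates, DESeq2 with apeglm shrinkage.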

Sequence | shrunken log2 fold change
RRIRPRPPRLPRPRPRPWVQPRP | 0.0127
RRIRPRPPRLPRPRPRPWWLPRP | -0.0379
RRIRPRPPRLPRPRPRPWYMPRP | -0.247
RRIRPRPPRLPRPRPRPWYSPRP | -0.22
RRIRPRPPRLPRPRPRPYATPRP | -0.446
RRIRPRPPRLPRPRPRPYAVPRP | -0.712
RRIRPRPPRLPRPRPRPYCLPRP | -0.115
RRIRPRPPRLPRPRPRPYDCPRP | -0.021
RRIRPRPPRLPRPRPRPYDWPRP | 0.0551
RRIRPRPPRLPRPRPRPYEPPRP | -0.317
RRIRPRPPRLPRPRPRPYFTPRP | -0.882
RRIRPRPPRLPRPRPRPYFYPRP | -0.787
RRIRPRPPRLPRPRPRPYHTPRP | -1.66
RRIRPRPPRLPRPRPRPYIEPRP | -0.322
RRIRPRPPRLPRPRPRPYIIPRP | -0.455
RRIRPRPPRLPRPRPRPYKKPRP | -0.574
RRIRPRPPRLPRPRPRPYKYPRP | -1.13
RRIRPRPPRLPRPRPRPYMFPRP | -0.897
RRIRPRPPRLPRPRPRPYMMPRP | -0.309
RRIRPRPPRLPRPRPRPYMPPRP | -0.854
RRIRPRPPRLPRPRPRPYNMPRP | -1.44
RRIRPRPPRLPRPRPRPYPLPRP | -0.861
RRIRPRPPRLPRPRPRPYPQPRP | -0.252
RRIRPRPPRLPRPRPRPYQAPRP | -0.0753
RRIRPRPPRLPRPRPRPYQDPRP | -0.025

Sequence | shrunken log2 fold change
RRIRPRPPRLPRPRPRPYQMPRP | -0.722
RRIRPRPPRLPRPRPRPYRWPRP | 0.087
RRIRPRPPRLPRPRPRPYSAPRP | -1.14
RRIRPRPPRLPRPRPRPYSCPRP | -0.183
RRIRPRPPRLPRPRPRPYVLPRP | -0.519
RRIRPRPPRLPRPRPRPYWVPRP | -0.284
RRIRPRPPRLPRPRPRPYWYPRP | -0.958
RRIRPRPPRLPRPRPRPYYMPRP | -0.864
RRIRQRPPRLPRPRPRPACIPRP | -0.165
RRIRQRPPRLPRPRPRPADQPRP | 0.012
RRIRQRPPRLPRPRPRPADSPRP | -0.00947
RRIRQRPPRLPRPRPRPADYPRP | -0.155
RRIRQRPPRLPRPRPRPAEMPRP | -0.0227
RRIRQRPPRLPRPRPRPAEQPRP | -0.000243
RRIRQRPPRLPRPRPRPAHYPRP | -0.332
RRIRQRPPRLPRPRPRPAICPRP | -0.0709
RRIRQRPPRLPRPRPRPAKPPRP | -0.0548
RRIRQRPPRLPRPRPRPALHPRP | 1.38
RRIRQRPPRLPRPRPRPAMGPRP | 0.127
RRIRQRPPRLPRPRPRPANCPRP | 0.0322
RRIRQRPPRLPRPRPRPANPPRP | -0.234
RRIRQRPPRLPRPRPRPANVPRP | -0.105
RRIRQRPPRLPRPRPRPAQAPRP | 0.0255
RRIRQRPPRLPRPRPRPARQPRP | 0.182
RRIRQRPPRLPRPRPRPASNPRP | -0.00674

Sequence | shrunken log2 fold change
RRIRQRPPRLPRPRPRPASQPRP | 0.0572
RRIRQRPPRLPRPRPRPATDPRP | -0.0316
RRIRQRPPRLPRPRPRPATIPRP | -0.123
RRIRQRPPRLPRPRPRPAVSPRP | -0.0348
RRIRQRPPRLPRPRPRPAVYPRP | -0.15
RRIRQRPPRLPRPRPRPAWAPRP | 0.263
RRIRQRPPRLPRPRPRPAYHPRP | -0.826
RRIRQRPPRLPRPRPRPCDCPRP | -0.0243
RRIRQRPPRLPRPRPRPCDRPRP | -0.0449
RRIRQRPPRLPRPRPRPCDVPRP | -0.15
RRIRQRPPRLPRPRPRPCFGPRP | 0.0162
RRIRQRPPRLPRPRPRPCGCPRP | 0.164
RRIRQRPPRLPRPRPRPCGIPRP | -0.115
RRIRQRPPRLPRPRPRPCGLPRP | 0.131
RRIRQRPPRLPRPRPRPCHFPRP | 0.173
RRIRQRPPRLPRPRPRPCHKPRP | 0.0524
RRIRQRPPRLPRPRPRPCIWPRP | -0.018
RRIRQRPPRLPRPRPRPCKTPRP | -0.01
RRIRQRPPRLPRPRPRPCLAPRP | 0.297
RRIRQRPPRLPRPRPRPCLKPRP | -0.286
RRIRQRPPRLPRPRPRPCLNPRP | -0.632
RRIRQRPPRLPRPRPRPCMDPRP | 0.00489
RRIRQRPPRLPRPRPRPCNAPRP | 0.0357
RRIRQRPPRLPRPRPRPCNCPRP | -0.0201
RRIRQRPPRLPRPRPRPCPFPRP | -0.505

Sequence | shrunken log2 fold change
RRIRQRPPRLPRPRPRPCPGPRP | -0.0035
RRIRQRPPRLPRPRPRPCQAPRP | -0.187
RRIRQRPPRLPRPRPRPCQEPRP | -0.015
RRIRQRPPRLPRPRPRPCQKPRP | 0.0369
RRIRQRPPRLPRPRPRPCRDPRP | 0.0161
RRIRQRPPRLPRPRPRPCSGPRP | -0.0532
RRIRQRPPRLPRPRPRPCTHPRP | -0.502
RRIRQRPPRLPRPRPRPCTWPRP | -0.464
RRIRQRPPRLPRPRPRPCVRPRP | -0.154
RRIRQRPPRLPRPRPRPCVTPRP | -0.141
RRIRQRPPRLPRPRPRPCWIPRP | -0.209
RRIRQRPPRLPRPRPRPDCAPRP | 0.0476
RRIRQRPPRLPRPRPRPDCWPRP | -0.0539
RRIRQRPPRLPRPRPRPDEHPRP | 2.14
RRIRQRPPRLPRPRPRPDFHPRP | 0.0254
RRIRQRPPRLPRPRPRPDFNPRP | -0.164
RRIRQRPPRLPRPRPRPDFVPRP | 0.0112
RRIRQRPPRLPRPRPRPDKGPRP | -0.285
RRIRQRPPRLPRPRPRPDKPPRP | -0.214
RRIRQRPPRLPRPRPRPDKWPRP | -0.00997
RRIRQRPPRLPRPRPRPDLIPRP | 0.0281
RRIRQRPPRLPRPRPRPDLYPRP | -0.105
RRIRQRPPRLPRPRPRPDMIPRP | -0.303
RRIRQRPPRLPRPRPRPDNKPRP | -0.532
RRIRQRPPRLPRPRPRPDPLPRP | 0.00221

Sequence | shrunken log2 fold change
RRIRQRPPRLPRPRPRPDQWPRP | 0.129
RRIRQRPPRLPRPRPRPDRDPRP | -0.242
RRIRQRPPRLPRPRPRPDREPRP | 0.00931
RRIRQRPPRLPRPRPRPDSIPRP | -0.00697
RRIRQRPPRLPRPRPRPDSYPRP | -0.127
RRIRQRPPRLPRPRPRPDTGPRP | -0.0117
RRIRQRPPRLPRPRPRPDVVPRP | -0.01
RRIRQRPPRLPRPRPRPDWQPRP | 0.0854
RRIRQRPPRLPRPRPRPDWYPRP | -0.32
RRIRQRPPRLPRPRPRPEAVPRP | 0.217
RRIRQRPPRLPRPRPRPEAWPRP | 0.316
RRIRQRPPRLPRPRPRPECHPRP | 0.268
RRIRQRPPRLPRPRPRPEGEPRP | 0.0215
RRIRQRPPRLPRPRPRPEGFPRP | -0.0494
RRIRQRPPRLPRPRPRPEGMPRP | 0.13
RRIRQRPPRLPRPRPRPEGWPRP | 0.856
RRIRQRPPRLPRPRPRPEGYPRP | -0.0294
RRIRQRPPRLPRPRPRPEHHPRP | -0.136
RRIRQRPPRLPRPRPRPEIAPRP | -0.151
RRIRQRPPRLPRPRPRPEIHPRP | -0.0415
RRIRQRPPRLPRPRPRPEKFPRP | -0.029
RRIRQRPPRLPRPRPRPEKQPRP | -0.267
RRIRQRPPRLPRPRPRPEKSPRP | 0.287
RRIRQRPPRLPRPRPRPELAPRP | 0.577
RRIRQRPPRLPRPRPRPELLPRP | 0.534

Sequence | shrunken log2 fold change
RRIRQRPPRLPRPRPRPELRPRP | -0.043
RRIRQRPPRLPRPRPRPEMDPRP | 0.231
RRIRQRPPRLPRPRPRPENDPRP | -0.0134
RRIRQRPPRLPRPRPRPENFPRP | -0.00776
RRIRQRPPRLPRPRPRPEPPPRP | 0.488
RRIRQRPPRLPRPRPRPEQCPRP | -0.0442
RRIRQRPPRLPRPRPRPEQLPRP | -0.0643
RRIRQRPPRLPRPRPRPEQWPRP | 0.222
RRIRQRPPRLPRPRPRPERSPRP | 0.0688
RRIRQRPPRLPRPRPRPESKPRP | 0.0494
RRIRQRPPRLPRPRPRPESYPRP | -0.0748
RRIRQRPPRLPRPRPRPETAPRP | 0.159
RRIRQRPPRLPRPRPRPETEPRP | 0.0982
RRIRQRPPRLPRPRPRPEWFPRP | -0.00295
RRIRQRPPRLPRPRPRPFAMPRP | -0.132
RRIRQRPPRLPRPRPRPFCDPRP | -0.259
RRIRQRPPRLPRPRPRPFDAPRP | -0.0632
RRIRQRPPRLPRPRPRPFEIPRP | 0.0112
RRIRQRPPRLPRPRPRPFFFPRP | 0.0337
RRIRQRPPRLPRPRPRPFGAPRP | -0.0476
RRIRQRPPRLPRPRPRPFHMPRP | -0.0421
RRIRQRPPRLPRPRPRPFKNPRP | 0.0784
RRIRQRPPRLPRPRPRPFLDPRP | -0.372
RRIRQRPPRLPRPRPRPFMCPRP | -0.371
RRIRQRPPRLPRPRPRPFNAPRP | -0.233
